Test results reported in patent US20250312491A1, “BASE EDITING OF TRANSTHYRETIN GENE” (Beam Therapeutics Inc., priority 2022, published 2025).
Oligonucleotides are written 5' to 3', each unit as a sugar letter and its base; * is a phosphorothioate linkage, no mark a phosphodiester; rarer units and linkages stand in square brackets, end groups in braces. Plain capitals give the bases only. m = 2'-O-methyl; r = 2'-OH (RNA)

B1: GA461: guide RNA, human/cyno TTR, protospacer TACTCACCTCTGCATGCTCA (SEQ ID NO: 27), gRNA SEQ ID NO: 15 (nucleic acid)
guide: TACTCACCTCTGCATGCTCAGTTTTAGAGCTAGAAATAGCAAGTTAAAATAAGGCTAGTCCGTTATCAACTTGAAAAAGTGGCACCGAGTCGGTGCTTTT
modifications: chemistry not given here
B2: GA459: guide RNA, human TTR, protospacer GCAACTTACCCAGAGGCAAA (SEQ ID NO: 25), gRNA SEQ ID NO: 13 (nucleic acid)
guide: GCAACTTACCCAGAGGCAAAGTTTTAGAGCTAGAAATAGCAAGTTAAAATAAGGCTAGTCCGTTATCAACTTGAAAAAGTGGCACCGAGTCGGTGCTTTT
modifications: chemistry not given here
B3: GA458: guide RNA, cyno TTR, protospacer GCCATCCTGCCAAGAACGAG (SEQ ID NO: 28), gRNA SEQ ID NO: 29; cynomolgus equivalent of GA457 (nucleic acid)
guide: mG*mC*mC*rArUrCrCrUrGrCrCrArArGrArArCrGrArGrGrUrUrUrUrArGrArGrCrUrArGrArArArUrArGrCrArArGrUrUrArArArArUrArArGrGrCrUrArGrUrCrCrGrUrUrArUrCrArArCrUrUrGrArArArArArGrUrGrGrCrArCrCrGrArGrUrCrGrGrUrGrCrU*mU*mU*mU
B4: GA460: guide RNA, human/cyno TTR, protospacer TATAGGAAAACCAGTGAGTC (SEQ ID NO: 26), gRNA SEQ ID NO: 14 (nucleic acid)
guide: TATAGGAAAACCAGTGAGTCGTTTTAGAGCTAGAAATAGCAAGTTAAAATAAGGCTAGTCCGTTATCAACTTGAAAAAGTGGCACCGAGTCGGTGCTTTT
modifications: chemistry not given here
B5: GA457: guide RNA, human TTR, protospacer GCCATCCTGCCAAGAATGAG (SEQ ID NO: 24), gRNA SEQ ID NO: 11 (nucleic acid)
guide: GCCATCCTGCCAAGAATGAGGTTTTAGAGCTAGAAATAGCAAGTTAAAATAAGGCTAGTCCGTTATCAACTTGAAAAAGTGGCACCGAGTCGGTGCTTTT
modifications: chemistry not given here
B6: GA521: modified guide RNA, human TTR, GA457 spacer with 2′-O-methyl modified tracr, SEQ ID NO: 11 (nucleic acid)
guide: B5 guide
modifications: chemistry not fully specified

Assays:
[1] = target: T1, Asialoglycoprotein receptor (ASGP-R) (Homo sapiens, UniProt P07306); settings: ligand: N-acetylgalactosamine (GalNAc); cited from earlier work
T1 sequence (P07306 1-291): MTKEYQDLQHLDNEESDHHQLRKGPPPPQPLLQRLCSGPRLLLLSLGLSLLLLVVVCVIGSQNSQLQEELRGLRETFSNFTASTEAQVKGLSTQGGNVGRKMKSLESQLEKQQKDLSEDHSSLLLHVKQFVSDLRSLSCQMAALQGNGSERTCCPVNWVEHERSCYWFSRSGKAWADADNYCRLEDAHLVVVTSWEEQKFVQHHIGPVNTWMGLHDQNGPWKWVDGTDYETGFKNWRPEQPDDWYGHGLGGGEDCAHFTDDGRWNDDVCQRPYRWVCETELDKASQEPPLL
T1 sequence (P07307 1-311 partner): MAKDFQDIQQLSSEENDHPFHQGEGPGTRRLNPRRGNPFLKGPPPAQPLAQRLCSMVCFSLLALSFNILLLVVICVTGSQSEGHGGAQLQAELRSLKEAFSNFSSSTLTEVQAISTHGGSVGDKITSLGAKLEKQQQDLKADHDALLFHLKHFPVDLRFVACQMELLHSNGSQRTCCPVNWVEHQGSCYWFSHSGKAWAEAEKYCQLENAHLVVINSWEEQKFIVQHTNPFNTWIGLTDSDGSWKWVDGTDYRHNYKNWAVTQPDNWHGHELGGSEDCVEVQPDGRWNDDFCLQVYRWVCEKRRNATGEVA

human TTR gene = experiment: Base editing in primary human hepatocytes co-transfected with gRNA and ABE8.8 mRNA, NGS; type: cell-based; settings: for Human hepatocytes- Editing % 625, rep 1 / Human hepatocytes- Editing % 625, rep 2: 625 ng/RNA/mL; for Human hepatocytes- Editing % 625, rep 1 / Human hepatocytes- Editing % 1250, rep 1 / Human hepatocytes- Editing % 2500, rep 1: rep 1, 3 days after transfection; for Human hepatocytes- Editing % 625, rep 2 / Human hepatocytes- Editing % 1250, rep 2 / Human hepatocytes- Editing % 2500, rep 2: rep 2, 3 days after transfection; for Human hepatocytes- Editing % 1250, rep 1 / Human hepatocytes- Editing % 1250, rep 2: 1250 ng/RNA/mL; for Human hepatocytes- Editing % 2500, rep 1 / Human hepatocytes- Editing % 2500, rep 2: 2500 ng/RNA/mL; for editing activity in human primary hepatocytes (in words): ABE8.8 mRNA co-transfection
Description: With this example, gRNA sequences were identified that permit ABE8.8 (and other ABE variants containing Streptococcus pyogenes Cas9, such as ABE7.10, or another Cas protein that can use the NGG PAM) to either: 1) disrupt the start codon, or 2) disrupt splice sites, whether donors or acceptors, via A→G editing within its editing window (roughly positions 4 to 7 in the 20-nt protospacer region of DNA). Five sequences were identified throughout the human TTR gene (Table 1). gRNAs were synthesized matching each of the protospacer sequences and otherwise conforming to the standard 100-nt Streptococcus pyogenes CRISPR gRNA sequence, with each gRNA molecule having a minimal degree of chemical modifications (specified in Table 1).
(§1) The mRNA, and corresponding amino acid, sequence of the ABE8.8 (MA004) used in shown below in Table 11. Three days after transfection, genomic DNA was harvested from the hepatocytes, and assessed for base editing with next-generation sequencing of PCR amplicons generated around the target splice site. […] See FIGS. 5A-5C, FIG. 6, and Tables 2-3.

[2] = system: cynomolgus monkey TTR gene; experiment: Base editing in primary cynomolgus hepatocytes transfected with gRNA and ABE8.8 mRNA, NGS; type: cell-based; settings: for Cyno hepatocytes- Editing % 156.25: 156.25 ng/RNA/mL; for Cyno hepatocytes- Editing % 312.5: 312.5 ng/RNA/mL; for Cyno hepatocytes- Editing % 625: 625 ng/RNA/mL; for Cyno hepatocytes- Editing % 1250: 1250 ng/RNA/mL; for Cyno hepatocytes- Editing % 2500: 2500 ng/RNA/mL; for Cyno hepatocytes- Editing % 5000: 5000 ng/RNA/mL; for editing activity in cynomolgus primary hepatocytes (in words): ABE8.8 mRNA co-transfection
Description: as §1

[3] = system: candidate off-target sites; experiment: Off-target validation in human primary hepatocytes: candidate off-target site editing; type: cell-based
Description: With a view towards establishing the safety of a base-editing therapy knocking down of TTR in the human liver in vivo, off-target mutagenesis analysis is assessed in primary human hepatocytes. […] The in vitro biochemical assay ONE-seq was used to generate a list of candidate off-target sites and to determine the propensity of a ribonucleoprotein comprising the ABE8.8 base editor protein and each of the three protospacer guides sequences (GA457, GA460, and GA461) to cleave oligonucleotides in a library.
For each site, the total number of edited reads was normalized to the total number of edited reads assigned to the on-target site, and this ratio defines the ONE-seq score for the site. Sites were ranked by ONE-seq score, and those with a score equal to or larger than 0.001, were selected for validation. A score equal to or larger than 0.001 encompasses sites that have down to 1000-fold less editing activity in the biochemical assay compared to editing of the on-target site. This threshold is based on the premise that in cells, if there is 100% on-target editing, 1/1000-fold less editing activity would translate to <0.1% off-target editing, which falls below the lower limit of detection of editing by NGS.
(§2) Several candidate off-target sites were analyzed for off-target editing in human primary hepatocytes.

TTR on-target site = experiment: Off-target validation in human primary hepatocytes: on-target site editing; type: cell-based; settings: for on-target site editing efficiency (in words): treated vs control groups, human primary hepatocytes
Description: as §2

TTR gene = experiment: GA521 dose response base editing in primary human hepatocytes, NGS; type: cell-based; settings: MessengerMax transfection, various doses total RNA (ng/ml), 3 days
Description: Exemplary guide RNA GA521 was transfected into primary human hepatocytes using MessengerMax transfection. GA521 disrupts the start codon AUG of the TTR gene by editing it to ACG with an A-to-G base editor (e.g., ABE8.8; ABE8.8-m).
Three days after transfection, genomic DNA was harvested from the hepatocytes, and assessed for base editing with next-generation sequencing of PCR amplicons generated around the target splice site.
FIG. 29 depicts dose response for human gRNA GA521 in primary human hepatocytes. Percent base editing at various doses (ng/ml) total RNA was determined from NGS analysis. GA521 was the guide RNA.

[4] = GA459 On-target GCAACTTACCCAGAGGCAAA
[5] = GA460 On-target TATAGGAAAACCAGTGAGTC
[6] = GA457 site OT29 GACATCCTGTCAAGGATCAG
[7] = GA457 site OT31 GCCATAAGCCAAAGAATGAC

Molecule | Human hepatocytes- Editing % 625, rep 1 (human TTR gene) [%] | Human hepatocytes- Editing % 625, rep 2 (human TTR gene) [%] | Human hepatocytes- Editing % 1250, rep 1 (human TTR gene) [%] | Human hepatocytes- Editing % 1250, rep 2 (human TTR gene) [%] | Human hepatocytes- Editing % 2500, rep 1 (human TTR gene) [%] | Human hepatocytes- Editing % 2500, rep 2 (human TTR gene) [%] | editing activity in human primary hepatocytes (in words) (human TTR gene) | Cyno hepatocytes- Editing % 156.25 [2] [%] | Cyno hepatocytes- Editing % 312.5 [2] [%] | Cyno hepatocytes- Editing % 625 [2] [%] | Cyno hepatocytes- Editing % 1250 [2] [%] | Cyno hepatocytes- Editing % 2500 [2] [%] | Cyno hepatocytes- Editing % 5000 [2] [%] | editing activity in cynomolgus primary hepatocytes (in words) [2] | off-target editing at candidate off-target sites (in words) ([3]; human primary hepatocytes) | on-target site editing efficiency (in words) (TTR on-target site) | further results
CC(=O)NC1O[C@H](CO)[C@H](O)[C@H](O)[C@H]1O (stereo partly drawn) [N-Acetyl-D-Galactosylamine] | – | – | – | – | – | – | – | – | – | – | – | – | – | – | – | – | affinity for ASGP-R relative to D-Gal [1]: 50 fold
B1 | 21.81 | 22.31 | 32.82 | 32.38 | 40.42 | 39.43 | high editing activity | 0.07 | 7.45 | 13.16 | 19.46 | 29.8 | 37.53 | high editing activity | little to no off-target editing | high editing efficiency | SUM Editing %-Human Primary Hepatocytes Treat rep 2 (TTR on-target site; GA461 On-target TACTCACCTCTGCATGCTCA): 58.9%
B2 | 3.79 | 3.89 | 5.46 | 6.15 | 8.5 | 8.69 | – | – | – | – | – | – | – | – | little to no off-target editing | high editing efficiency | SUM Editing %-Human Primary Hepatocytes Treat rep 1 (TTR on-target site; [4]): 14.17%; SUM Editing %-Human Primary Hepatocytes Treat rep 2 (TTR on-target site; [4]): 14.29%
B3 | – | – | – | – | – | – | – | 6.06 | 10.65 | 16.07 | 22.74 | 27.25 | 35.91 | high editing activity | – | – | –
B4 | 23.77 | 22.27 | 38.33 | 35.8 | 47.61 | 47.79 | high editing activity | 1.62 | 11.22 | 18.44 | 31.71 | 38.25 | 40.16 | high editing activity | little to no off-target editing | high editing efficiency | SUM Editing %-Human Primary Hepatocytes Treat rep 1 (TTR on-target site; [5]): 76.4%; SUM Editing %-Human Primary Hepatocytes Treat rep 2 (TTR on-target site; [5]): 74.3%
B5 | 17.24 | 15.39 | 26.49 | 24.86 | 33.96 | 31.31 | high editing activity | – | – | – | – | – | – | – | – | high editing efficiency | net editing at all off-target sites ([3]; 47 candidate off-target sites, human primary hepatocytes): less than 0.4%; % Editing-human primary hepatocytes Net ([3]; GA457 site OT3 GCCATACCTGCCATGAATGAG): 0.01%; % Editing-human primary hepatocytes Net [3, 6]: 0.05%; % Editing-human primary hepatocytes Treated [3, 6]: 0.21%; % Editing-human primary hepatocytes Net [3, 7]: 0.09%; % Editing-human primary hepatocytes Treated [3, 7]: 0.09%; % Editing-human primary hepatocytes Treated (TTR on-target site; GA457 On-target GCCATCCTGCCAAGAATGAG): 54.21%; % Editing-human primary hepatocytes Net (TTR on-target site; GA457 On-target GCCATCCTGCCAAGAATGAG, treated minus untreated): 54.1%
B6 | – | – | – | – | – | – | – | – | – | – | – | – | – | – | – | – | percent base editing in primary human hepatocytes (TTR gene): greater than 40%
